Conditions: O-GlcNAc at T241

Row | Substance | degradation_or_half_life | other
1 | YAP (Yes-associated protein): OGT knockdown (shRNA) | decreases | –
2 | YAP (Yes-associated protein): T241A | decreases | increases

— PMC5424161
